Two molecules from US20260117244A1, “INHIBITORY RNA FOR THE CONTROL OF PHYTOPATHOGENS” (priority 2021, published 2026) can be followed below.

The test system of this data set is E. necator. Briefly: SIGS, E. necator spore production on V. vinifera (whole plant and leaf disc assays). Format: in vivo, Erysiphe necator. From the text: Spore suspension concentrations were normalized to the input tissue weight (g) before being normalized to the control.
Spore suspension concentrations were normalized to the input tissue weight (g) before being normalized to the control. CYP51 is included as a positive control gene required for growth. Error bars±SEM. *p<0.05 by Student's T-Test (unpaired, 2-tailed) compared to control.
With SIGS methods optimized and gene targets identified, we sought to translate these methods and targets to grape powdery mildew (FIG. 2). New long dsRNAs were designed for each target tested as there is significant sequence divergence between G. orontii MGH1 and E. necator c. First, procedures were optimized for the grapevine system by silencing CYP51. Spore production was reduced by 62% and 45% in grapevine whole plant and leaf disc assays, respectively when treated with long dsRNA against the same region of CYP51 as dsRNA-1 against G. orontii MGH1 CYP51 (FIG. 2; FIG. 7, panel a). […] We tested SIGS against the effective targets including AATF in the grapevine system, as we were interested in ascertaining whether they would show a statistically significant difference in grape powdery mildew spore production. […] The average reduction of powdery mildew spore production for SIGS against CYP51 and AATF was greater in E. necator compared to G. orontii (FIG. 4 and FIG. 7). One notable difference is G. orontii has 2 copies each of CYP51 and AATF while E. necator has 1 copy of each of these genes. SIGS against the other effective targets also were effective in reducing powdery mildew of grapevine (FIG. 7).
As the full G. orontii MGH1 OEC60/OEC61 is conserved in other powdery mildews (Table 6) and has the potential to interact with both TCP13 and TCP14, we tested whether findings in the G. orontii MGH1-Arabidopsis pathosystem can translate to an agriculturally important pathosystem, powdery mildew of grapevine. To do so, we identified an OEC60/OEC61 homolog in E. necator c (Jones et al., 2014) and designed a long dsRNA to target this gene in the same region effective for G. orontii. Targeting of OEC60/OEC61 in Erysiphe necator by SIGS reduces grape powdery mildew production on V. vinifera leaves to 71% of control treated plants (FIG. 12), similar to the reduction seen with the Arabidopsis powdery mildew (FIG. 10, panel d).

B1: E. necator OEC60/OEC61 dsRNA: long dsRNA against E. necator homolog of OEC60/OEC61 (target SEQ ID NO:199) (nucleic acid)
chain: CTGCTACTAGCTTTCATGGTATGAAACTCATTATTGGTGTTTTTATTGGTGAAACTGGTTGCTCTGGCGCTAAAGAGCAGGTGAACCACATCGTTAAATGGGGTAAATGGGATTTGGTAGAACTCATTGTGATCGGGAATGAGGCTCTGTTTAGTGGTCATGCGTCACCCGAAGAGTTAGCCGAATTTATTACCTCGACTAAAATCACCCTCAGATCAGC
modifications: misc_feature 1..220: note = Inhibitory double stranded RNA; listed as RNA
B1: under “E. necator on V. vinifera, SIGS”, the “effect on grapevine powdery mildew growth and reproduction / spore production” value is “reduces spore production”. Moreover, the “grape powdery mildew spore production relative to control treated plants” value (V. vinifera leaf discs (FIG. 12), long dsRNA) was 71 % of control.

B2: E. necator AATF dsRNA: long dsRNA against E. necator AATF (target SEQ ID NO:197) (nucleic acid)
chain: TGATAGCGATCATGATAGATGCGACTCAAATTTTAGTAATAGGAATGACAAAGAGATTATTAAACGGTCTGAAATTCAAAGATTTATGGAAGAAGATCAAAAAGCAATATTATCAACTTTATCTCAAGCAGCAAAGGTAGATGCAGAAAAGGGAAGGGCAATTAAGTCACAACAAATGAGATTCGATTCTCTTCTAAATACGCGAATGGAGCTGCAGAAAGCTCTGATAGCAGTTAATTCTCTTACTACCTTTCAAGATGATAATTCTATTTTCTCCAAGGATAAGCCATACGAAGCAGC
modifications: misc_feature 1..300: note = Inhibitory double stranded RNA; listed as RNA
On to B2, for which the “average reduction in spore production” value (long dsRNA, assay format not stated (FIG. 7)) is on record as 53%.
